Consider 1 molecule from patent US8703915B2, “Mutant proteins and methods for producing them” (Heptares Therapeutics Limited, priority 2009, dated 2014).

Series [1] concerns A2A receptor. Put plainly: Thermostability of A2A receptor in NECA agonist-bound state, solubilised in DDM. The following applies: NECA agonist-bound state (400 nM), solubilised in DDM. In kind it is physicochemical, human. The method, then: (§1) In order to stabilise an agonist-bound conformation, a systematic Alanine-scan was performed in order to identify mutations that may stabilise the A2A receptor bound to its full agonist NECA. In this A2A agonist-bound study, L2.46 (L48A) is the most stabilising single mutant. When NECA is bound to the solubilised receptor, removing the L48 side chain (in A2A-L48A) dramatically increases the thermostability of the ligand-receptor complex resulting in an increase of 14° C. over the wild type receptor in the detergent DDM (FIG. 5a). […] We evaluated the signalling property of the A2A receptor by over-expressing the receptor in CHO cells. A2A agonist stimulation triggers the signal transduction through the Gs-trimeric complex and increases the intracellular cAMP level. The increase in intracellular cAMP can be detected by and quantified by using an anti-cAMP Mab antibody competition assay. […] However the signalling efficacy is reduced to 30% (FIG. 6).
A2AR-(2-316) expression was carried out by using the pRG/III-hs-MBP E. coli expression vector and DH5α cells. Cells were grown at 37° C. in 2 L flasks containing 500 mL of 2×TY medium supplemented with Ampicillin (100 μg/mL) and glucose (0.2% w/v). At OD600≈0.7, IPTG and theophylline were added at final concentrations respectively of 0.5 mM and 100 μM, and the temperature was reduced to 20° C. After 22 to 24 hours, cells were harvested in aliquots of 14 mL, centrifuged for 30 min and stored at −20° C. Both 5HT2C and M4 receptors were transiently expressed in HEK293T cells using GeneJuice transfection reagent used according to the manufacturers guidelines.
An aliquot of E. coli cells expressing wild type or mutant A2AR-(2-316) (14 mL) was thawed on ice and cells were resuspended in 500 μL of buffer A (50 mM Tris HCl mM/pH 7.4; 0.4 M NaCl, 250 μg/mL lysozyme (Sigma), 1 mg/mL DNAse I (Sigma), supplemented with complete EDTA-free Protease inhibitor cocktail (Roche)) and incubated 1 hour at 4° C. Samples were then sonicated 1 min at 4° C. using a cup-horn sonicator. […]

Series [2] addresses T1, A2A receptor (Homo sapiens, UniProt P29274).
T1 construct: A2AR-(2-316) expression was carried out by using the pRG/III-hs-MBP E. coli expression vector; MBP (named only in the vector name); made in house; host or cells: E. coli DH5alpha
Put plainly: Thermostability of A2A receptor in ZM241385 antagonist-bound state, solubilised in DDM. In kind it is physicochemical. As to conditions: ZM antagonist bound state (100 nM). On the procedure: as §1
A2AR-(2-316) expression was carried out by using the pRG/III-hs-MBP E. coli expression vector and DH5α cells. Cells were grown at 37° C. in 2 L flasks containing 500 mL of 2×TY medium supplemented with Ampicillin (100 μg/mL) and glucose (0.2% w/v). At OD600≈0.7, IPTG and theophylline were added at final concentrations respectively of 0.5 mM and 100 μM, and the temperature was reduced to 20° C. […]

The test system of series [3] is A2A receptor. Put plainly: cAMP functional assay (HTRF), NECA stimulation of CHO cells over-expressing A2A receptor. The format is cell-based, human. As to conditions: intracellular cAMP, CHO cells. On the procedure: as §1
This assay takes advantage of Homogeneous Time-Resolved Fluorescence (HTRF) using cAMP labeled with the dye d2 in presence of an anti-cAMP Mab labeled with Cryptate. The method is based on a competitive immunoassay between cAMP produced by cells and the cAMP labeled with the dye d2. CHO cells were grown using Glutamax Ham's F12, 10% FBS in 96-well plates, clear bottom and Black wall (Costar). Cells were seeded at a density of 12500 cells per well, grown overnight, washed with PBS and then transfected with 100 ng of pcDNA-3-A2A(2-316) pre-incubated with 0.3 μL of GeneJuice (Novagen) per well. After 48 hours of receptor expression, the medium was removed, the cells were washed in PBS then stimulated by using different NECA concentrations, in the presence of Rolipram (50 μM) and Adenosine deaminase in a total volume of 50 μL for 30 minutes. Dilution was realised in Hamf's F12/cAMP-d2 conjugate according to the manufacturer protocol, without serum. […] The plate was incubated at room temperature for 1 hour and then read using the Pherastar 96-well time-resolved fluorescence plate reader (Ex 340 nm; Em 665/620 nm).

The subject of another series is adenosine A2A receptor. Put plainly: Antagonist binding to adenosine A2A NPxxY motif alanine mutants (Table 1). Also on record: species or system human. On the procedure:
An alanine scan was carried out in a similar fashion on an adenosine A2A receptor along with the 5HT2C receptor in the presence of the antagonist Mesulergine. Both alanine scans were carried out in order to further stabilize the antagonist conformation. […] The motif in Adenosine A2A is NPFIY (SEQ ID NO: 364) and for the 5HT2C is NPLVY (SEQ ID NO: 363). Therefore mutations in this region of the receptor contain stabilising mutations specific to the agonist conformation and detrimentally effect antagonist binding.
Adenosine A2A receptor was solubilised from transiently transfected mammalian cells about 36 hours post transfection, in 50 mM Tris pH7.4/400 mM NaCl/0.5% DDM and protease inhibitor. Cell lysates were left at 4° C. on a rotator and then cleared by centrifugation at 13,200 rpm for 20 minutes at 4° C. Solubilised receptors were then purified on Ni-NTA beads and eluted with 50 mM histidine. The eluted receptor was used in radioligand binding assay. The Tm was determined by incubating 108 μl of the eluate with Zm241385 radioligand at a final concentration of 100 nM for one hour at 4° C. The six ligand incubations are then incubated at six different temperatures from 20° C. to 50° C., for thirty minutes. Receptor bound and free radioligand were separated using G25 Sephadex spin columns.

B1: A2A-WT: wild type human adenosine A2A receptor, A2AR-(2-316) (protein, UniProt P29274 2-316, looked up, fragment)
chain: PIMGSSVYITVELAIAVLAILGNVLVCWAVWLNSNLQNVTNYFVVSLAAADIAVGVLAIPFAITISTGFCAACHGCLFIACFVLVLTQSSIFSLLAIAIDRYIAIRIPLRYNGLVTGTRAKGIIAICWVLSFAIGLTPMLGWNNCGQPKEGKNHSQGCGEGQVACLFEDVVPMNYMVYFNFFACVLVPLLLMLGVYLRIFLAARRQLKQMESQPLPGERARSTLQKEVHAAKSLAIIVGLFALCWLPLHIINCFTFFCPDCSHAPLWLMYLAIVLSHTNSVVNPFIYAYRIREFRQTFRKIIRSHVLRQQEPFKA
In the case of B1, the Tm in the series with A2A receptor [1] is 28.7±0.5 °C; with A2A receptor [2] it was 33.0±0.7 °C. The pEC50 (in general, −log10 of the EC50, conventionally taken in molar units) in the series on A2A receptor [3] came to 7.27±0.19. In addition, in the series with adenosine A2A receptor (antagonist binding), the “% of Wildtype binding” value came out at 100%. For the same molecule, in the series on adenosine A2A receptor (antagonist binding, replicate 1), the DPM1 is 13513 DPM. This molecule also showed a DPM2 in the series with adenosine A2A receptor (antagonist binding, replicate 2) of 12949 DPM. Further, the “Average - BG” value in the series on adenosine A2A receptor (average minus background) amounted to 12731. In addition, in the series with adenosine A2A receptor (average of DPM1 and DPM2), the Average was found to be 13231.
